Results published in patent US20190309034A1 (Boehringer Ingelheim, published 2019).

What was measured:
[1] = target: T1, Recombinant soluble trimeric human BAFF (furin-cleaved human BAFF 134-285) (human, UniProt Q9Y275 134-285); assay: cell-based or functional assay
[2] = target: T2, Recombinant soluble 60-mer human BAFF (His-HuBAFF 134-285) (human, UniProt Q9Y275 134-285); assay: cell-based or functional assay
[3] = target: T3, Human membrane-bound BAFF (mbBAFF) (human, UniProt Q9Y275 1-285); assay: cell-based or functional assay
[4] = target: T3, Human membrane-bound BAFF (mbBAFF); assay: cell-based or functional assay; remark: listed apart in the source
[5] = target: T1, Recombinant soluble trimeric human BAFF …; assay: SPR, antibody captured on Protein A/G, soluble trimeric BAFF flowed over, 1:1 Langmuir global fit, apparent affinity
Method: (§1) Apparent binding affinities were evaluated using surface plasmon resonance where the antibodies were captured at different surface densities on a Protein A/G surface. Soluble trimeric BAFF at different concentrations were flowed over the captured antibody. Clinical reference antibodies (Reference 1 comprising SEQ ID NOS: 98 and 116) and Reference 2 comprising SEQ ID NOS: 99 and 117) were used as comparators.

[6] = target: T1, Recombinant soluble trimeric human BAFF …; assay: cell-based or functional assay; remark: listed apart in the source
[7] = target: T1, Recombinant soluble trimeric human BAFF …; assay: cell-based or functional assay; remark: listed apart in the source
[8] = target: T2, Recombinant soluble 60-mer human BAFF …; assay: cell-based or functional assay; remark: listed apart in the source
[9] = target: T1, Recombinant soluble trimeric human BAFF …; assay: SPR, antibody captured on Protein A/G, soluble trimeric BAFF flowed over, 1:1 Langmuir global fit, apparent affinity (at detection limit)
Method: as §1

B1: Reference 2 (antibody, human IgG1, lambda, V domains shown)
VH: QVQLQQSGAEVKKPGSSVRVSCKASGGTFNNNAINWVRQAPGQGLEWMGGIIPMFGTAKYSQNFQGRVAITADESTGTASMELSSLRSEDTAVYYCARSRDLLLFPHHALSPWGRGTMVTVSS
VL: SSELTQDPAVSVALGQTVRVTCQGDSLRSYYASWYQQKPGQAPVLVIYGKNNRPSGIPDRFSGSSSGNTASLTITGAQAEDEADYYCSSRDSSGNHWVFGGGTELTVLG
notes: Comparator anti-BAFF antibody
Soluble trimeric huBAFF (50 pM) Neutralization IC90 [1]: 1000 pM | Soluble 60-mer huBAFF (4 pM) Neutralization IC50 [2]: 38300 pM | Soluble 60-mer huBAFF (4 pM) Neutralization IC90 [2]: 198000 pM | Potent mbBAFF Neutralization IC50 [3]: 2180 pM | Potent mbBAFF Neutralization IC90 [3]: 151 nM | IC50 (neutralisation of mbBAFF activation of human BAFFR, fixed mbBAFF-CHO mixed with luciferase reporter BAFFR-CHO cells) [4]: 8.6 nM | Kd [5]: 0.0222 nM | Soluble trimeric huBAFF (52 pM) Neutralization IC90 [6]: 1000 pM | IC50 (neutralisation of soluble trimeric huBAFF activation of human BAFFR, luciferase reporter CHO cells) [7]: 0.22 nM

B2: Reference 1 (antibody, human IgG4 S228P, kappa, V domains shown)
VH: QVQLQQWGAGLLKPSETLSLTCAVYGGSFSGYYWSWIRQPPGKGLEWIGEINHSGSTNYNPSLKSRVTISVDTSKNQFSLKLSSVTAADTAVYYCARGYYDILTGYYYYFDYWGQGTLVTVSS
VL: EIVLTQSPATLSLSPGERATLSCRASQSVSRYLAWYQQKPGQAPRLLIYDASNRATGIPARFSGSGSGTDSTLTISSLEPEDFAVYYCQQRSNWPRTFGQGTKVEIKR
notes: Comparator anti-BAFF antibody
Soluble trimeric huBAFF (50 pM) Neutralization IC90 [1]: 290 pM | Soluble 60-mer huBAFF (4 pM) Neutralization IC50 [2]: 40 pM | Soluble 60-mer huBAFF (4 pM) Neutralization IC90 [2]: 102 pM | Potent mbBAFF Neutralization IC50 [3]: 177 pM | Potent mbBAFF Neutralization IC90 [3]: 1.05 nM | IC50 (neutralisation of mbBAFF activation of human BAFFR, fixed mbBAFF-CHO mixed with luciferase reporter BAFFR-CHO cells) [4]: 0.21 nM | Soluble trimeric huBAFF (52 pM) Neutralization IC90 [6]: 290 pM | Soluble 60-mer huBAFF (4.2 pM) Neutralization IC90 [8]: 21 pM | Kd [9]: < 0.01 nM | IC50 (neutralisation of soluble trimeric huBAFF activation of human BAFFR, luciferase reporter CHO cells) [7]: 0.12 nM
